Data set [1] has as its target CDP-tyvelose 2-epimerase-like enzyme from Thermodesulfatator atlanticus (TaCPa2E) (Thermodesulfatator atlanticus). Put plainly: SEC; gel filtration of the purified C-terminally His-tagged protein; conditions not shown (Fig. S3 and S4, supplemental material). On the technique in general: Size exclusion chromatography separates by hydrodynamic size, large species first.

Substrate in data set [2]: Nc1ccn([C@@H]2O[C@H](COP(=O)(O)OP(=O)(O)O[C@H]3O[C@H](CO)[C@@H](O)[C@H](O)[C@@H]3O)[C@@H](O)[C@H]2O)c(=O)n1
Put plainly: purified protein. To be noted: pH 7.5; 60.0 °C.

Substrate in data set [3]: Nc1ccn([C@@H]2O[C@H](COP(=O)(O)OP(=O)(O)O[C@H]3O[C@H](CO)[C@@H](O)[C@H](O)[C@H]3O)[C@@H](O)[C@H]2O)c(=O)n1
Put plainly: purified protein. To be noted: pH 7.5; 60.0 °C.

As usually defined, the stoichiometry N is the number of molecules, sites or subunits per partner or assembly. In data set [1], “CDP-tyvelose 2-epimerase-like enzyme from Thermodesulfatator atlanticus (TaCPa2E)” displayed a stoichiometry N of 2.

B1: TaCPa2E (Thermodesulfatator atlanticus) (protein)
chain: MKYLITGGCGFLGSNLASEVLRKREELIIFDNLYRIGSYENLEWLKQQGDFRFVHGDIRNREDIEKVIKEEKPDVIFHLAGQVAMTTSIENPRLDFEVNALGTFNLLDAVRKYSPESIIIYSSTNKVYGDLGWVRYEETETRYIAPDFPNGFPESIPLDFHSPYGCSKGAADQYMLDFCRIYGIKTVVFRHSSMYGGRQFATYDQGWIGWFCLKAIEIKKGLLKEPFTIHGNGKQVRDVLYADDMIELYFKTIENIEKAKGEAFNIGGGMENSLSLLELFSLLEKELDIKMRYKKLPWRESDQKIFVADIRKAQKLIGWQPKVSKYNGIQKMLEWIKKLV
The term Km denotes the substrate concentration at which the rate is half of its maximum. Turning to B1, the Km was determined as 310 ± 10 µM in the data set “purified protein [2]” and 320 ± 20 µM in “purified protein [3]”.

(Values after PMC7851689, “Expanding the Enzyme Repertoire for Sugar Nucleotide Epimerization: the CDP-Tyvelose 2-Epimerase from Thermodesulfatator atlanticus for Glucose/Mannose Interconversion” (Applied and Environmental Microbiology, 2021).)
